According to ChEMBL document CHEMBL1212771, “BEL-2, an extended-spectrum beta-lactamase with increased activity toward expanded-spectrum cephalosporins in Pseudomonas aeruginosa” (Antimicrob Agents Chemother, 2010):
Residue numbers refer to the chain shown, from its start. Values after ≈ are worked out from the molar mass of the structure shown.

What was measured:
Escherichia coli [1] = assay: Antimicrobial activity against Escherichia coli TOP10 expressing recombinant beta-lactamase BEL-2 by solid agar dilution method; type: functional
Pseudomonas aeruginosa [2] = assay: Antimicrobial activity against Pseudomonas aeruginosa 51170 expressing beta-lactamase BEL-1 by solid agar dilution method; type: functional
Escherichia coli [3] = assay: Antimicrobial activity against Escherichia coli TOP10 by solid agar dilution method; type: functional
Escherichia coli [4] = assay: Antimicrobial activity against Escherichia coli TOP10 expressing recombinant beta-lactamase BEL-1 by solid agar dilution method; type: functional
Pseudomonas aeruginosa [5] = assay: Antimicrobial activity against Pseudomonas aeruginosa 531 expressing beta-lactamase BEL-2 by solid agar dilution method; type: functional
Pseudomonas aeruginosa [6] = assay: Ratio of Km for Pseudomonas aeruginosa 51170 beta-lactamase BEL-1 to Km for Pseudomonas aeruginosa 531 beta-lactamase BEL-2
[7] = substrate: CO/N=C(\C(=O)N[C@@H]1C(=O)N2C(C(=O)O)=C(COC(C)=O)CS[C@H]12)c1csc(N)n1; assay: (§1) Ratio of Kcat to Km for Pseudomonas aeruginosa 531 beta-lactamase BEL-2
[8] = substrate: CC1(C)S[C@@H]2[C@H](NC(=O)Cc3ccccc3)C(=O)N2[C@H]1C(=O)O; assay: as §1
[9] = substrate: CO/N=C(\C(=O)N[C@@H]1C(=O)N2C(C(=O)[O-])=C(C[N+]3(C)CCCC3)CS[C@H]12)c1csc(N)n1; assay: as §1
[10] = substrate: C[C@H]1[C@H](NC(=O)/C(=N\OC(C)(C)C(=O)O)c2csc(N)n2)C(=O)N1S(=O)(=O)O; assay: as §1
[11] = substrate: CC(=O)OCC1=C(C(=O)O)N2C(=O)[C@@H](NC(=O)Cc3cccs3)[C@H]2SC1; assay: as §1
[12] = substrate: O=C(Cc1cccs1)N[C@@H]1C(=O)N2C(C(=O)[O-])=C(C[n+]3ccccc3)CS[C@H]12; assay: as §1
[13] = substrate: CO/N=C(\C(=O)N[C@@H]1C(=O)N2C(C(=O)O)=C(COC(N)=O)CS[C@H]12)c1ccco1; assay: as §1
[14] = substrate: CCN1CCN(C(=O)N[C@@H](C(=O)N[C@@H]2C(=O)N3[C@@H]2SC(C)(C)[C@@H]3C(=O)O)c2ccccc2)C(=O)C1=O; assay: as §1
[15] = substrate: CC(C)(O/N=C(\C(=O)N[C@@H]1C(=O)N2C(C(=O)[O-])=C(C[n+]3ccccc3)CS[C@H]12)c1csc(N)n1)C(=O)O; assay: as §1
[16] = substrate: CO/N=C(\C(=O)N[C@@H]1C(=O)N2C(C(=O)O)=C(COC(C)=O)CS[C@H]12)c1csc(N)n1; assay: (§2) Activity at Pseudomonas aeruginosa 531 beta-lactamase BEL-2
[17] = substrate: C[C@@H](O)[C@H]1C(=O)N2C(C(=O)O)=C(SCCNC=N)C[C@H]12; assay: as §2
[18] = substrate: CC1(C)S[C@@H]2[C@H](NC(=O)Cc3ccccc3)C(=O)N2[C@H]1C(=O)O; assay: as §2
[19] = substrate: CO/N=C(\C(=O)N[C@@H]1C(=O)N2C(C(=O)[O-])=C(C[N+]3(C)CCCC3)CS[C@H]12)c1csc(N)n1; assay: as §2
[20] = substrate: C[C@H]1[C@H](NC(=O)/C(=N\OC(C)(C)C(=O)O)c2csc(N)n2)C(=O)N1S(=O)(=O)O; assay: as §2
[21] = substrate: CC(=O)OCC1=C(C(=O)O)N2C(=O)[C@@H](NC(=O)Cc3cccs3)[C@H]2SC1; assay: as §2
[22] = substrate: O=C(Cc1cccs1)N[C@@H]1C(=O)N2C(C(=O)[O-])=C(C[n+]3ccccc3)CS[C@H]12; assay: as §2
[23] = substrate: CO[C@@]1(NC(=O)Cc2cccs2)C(=O)N2C(C(=O)O)=C(COC(N)=O)CS[C@@H]21; assay: as §2
[24] = substrate: CO/N=C(\C(=O)N[C@@H]1C(=O)N2C(C(=O)O)=C(COC(N)=O)CS[C@H]12)c1ccco1; assay: as §2
[25] = substrate: CCN1CCN(C(=O)N[C@@H](C(=O)N[C@@H]2C(=O)N3[C@@H]2SC(C)(C)[C@@H]3C(=O)O)c2ccccc2)C(=O)C1=O; assay: as §2
[26] = substrate: CC(C)(O/N=C(\C(=O)N[C@@H]1C(=O)N2C(C(=O)[O-])=C(C[n+]3ccccc3)CS[C@H]12)c1csc(N)n1)C(=O)O; assay: as §2
[27] = substrate: CO/N=C(\C(=O)N[C@@H]1C(=O)N2C(C(=O)O)=C(COC(C)=O)CS[C@H]12)c1csc(N)n1; assay: (§3) Ratio of Kcat to Km for Pseudomonas aeruginosa 51170 beta-lactamase BEL-1
[28] = substrate: CC1(C)S[C@@H]2[C@H](NC(=O)Cc3ccccc3)C(=O)N2[C@H]1C(=O)O; assay: as §3
[29] = substrate: CO/N=C(\C(=O)N[C@@H]1C(=O)N2C(C(=O)[O-])=C(C[N+]3(C)CCCC3)CS[C@H]12)c1csc(N)n1; assay: as §3
[30] = substrate: C[C@H]1[C@H](NC(=O)/C(=N\OC(C)(C)C(=O)O)c2csc(N)n2)C(=O)N1S(=O)(=O)O; assay: as §3
[31] = substrate: CC(=O)OCC1=C(C(=O)O)N2C(=O)[C@@H](NC(=O)Cc3cccs3)[C@H]2SC1; assay: as §3
[32] = substrate: O=C(Cc1cccs1)N[C@@H]1C(=O)N2C(C(=O)[O-])=C(C[n+]3ccccc3)CS[C@H]12; assay: as §3
[33] = substrate: CO/N=C(\C(=O)N[C@@H]1C(=O)N2C(C(=O)O)=C(COC(N)=O)CS[C@H]12)c1ccco1; assay: as §3
[34] = substrate: CCN1CCN(C(=O)N[C@@H](C(=O)N[C@@H]2C(=O)N3[C@@H]2SC(C)(C)[C@@H]3C(=O)O)c2ccccc2)C(=O)C1=O; assay: as §3
[35] = substrate: CO/N=C(\C(=O)N[C@@H]1C(=O)N2C(C(=O)O)=C(COC(C)=O)CS[C@H]12)c1csc(N)n1; assay: (§4) Activity at Pseudomonas aeruginosa 51170 beta-lactamase BEL-1
[36] = substrate: C[C@@H](O)[C@H]1C(=O)N2C(C(=O)O)=C(SCCNC=N)C[C@H]12; assay: as §4
[37] = substrate: CC1(C)S[C@@H]2[C@H](NC(=O)Cc3ccccc3)C(=O)N2[C@H]1C(=O)O; assay: as §4
[38] = substrate: CO/N=C(\C(=O)N[C@@H]1C(=O)N2C(C(=O)[O-])=C(C[N+]3(C)CCCC3)CS[C@H]12)c1csc(N)n1; assay: as §4
[39] = substrate: C[C@H]1[C@H](NC(=O)/C(=N\OC(C)(C)C(=O)O)c2csc(N)n2)C(=O)N1S(=O)(=O)O; assay: as §4
[40] = substrate: CC(=O)OCC1=C(C(=O)O)N2C(=O)[C@@H](NC(=O)Cc3cccs3)[C@H]2SC1; assay: as §4
[41] = substrate: O=C(Cc1cccs1)N[C@@H]1C(=O)N2C(C(=O)[O-])=C(C[n+]3ccccc3)CS[C@H]12; assay: as §4
[42] = substrate: CO[C@@]1(NC(=O)Cc2cccs2)C(=O)N2C(C(=O)O)=C(COC(N)=O)CS[C@@H]21; assay: as §4
[43] = substrate: CO/N=C(\C(=O)N[C@@H]1C(=O)N2C(C(=O)O)=C(COC(N)=O)CS[C@H]12)c1ccco1; assay: as §4
[44] = substrate: CCN1CCN(C(=O)N[C@@H](C(=O)N[C@@H]2C(=O)N3[C@@H]2SC(C)(C)[C@@H]3C(=O)O)c2ccccc2)C(=O)C1=O; assay: as §4
[45] = substrate: CC(C)(O/N=C(\C(=O)N[C@@H]1C(=O)N2C(C(=O)[O-])=C(C[n+]3ccccc3)CS[C@H]12)c1csc(N)n1)C(=O)O; assay: as §4

CCN1CCN(C(=O)N[C@@H](C(=O)N[C@@H]2C(=O)N3[C@@H]2SC(C)(C)[C@@H]3C(=O)O)c2ccccc2)C(=O)C1=O [PIPERACILLIN]
MIC (Escherichia coli [1]): 32 µg/mL | MIC (Pseudomonas aeruginosa [2]): 16 µg/mL (≈ 30.9 µM) | MIC (Escherichia coli [3]): 1 µg/mL (≈ 1.93 µM) | MIC (Escherichia coli [4]): 128 µg/mL | MIC (Pseudomonas aeruginosa [5]): 16 µg/mL (≈ 30.9 µM)

CO/N=C(\C(=O)N[C@@H]1C(=O)N2C(C(=O)[O-])=C(C[N+]3(C)CCCC3)CS[C@H]12)c1csc(N)n1
MIC (Escherichia coli [1]): 1 µg/mL | MIC (Pseudomonas aeruginosa [2]): 4 µg/mL (≈ 8.32 µM) | MIC (Escherichia coli [4]): 0.25 µg/mL | MIC (Pseudomonas aeruginosa [5]): 16 µg/mL (≈ 33.3 µM)

CO[C@@]1(NC(=O)Cc2cccs2)C(=O)N2C(C(=O)O)=C(COC(N)=O)CS[C@@H]21 [CEFOXITIN]
MIC (Escherichia coli [1]): 2 µg/mL | MIC (Pseudomonas aeruginosa [2]): 512 µg/mL (≈ 1200 µM) | MIC (Escherichia coli [3]): 2 µg/mL (≈ 4.68 µM) | MIC (Escherichia coli [4]): 2 µg/mL | MIC (Pseudomonas aeruginosa [5]): 512 µg/mL (≈ 1200 µM)

CC1(C)S[C@@H]2[C@H](NC(=O)[C@H](N)c3ccc(O)cc3)C(=O)N2[C@H]1C(=O)O [AMOXICILLIN]
MIC (Escherichia coli [1]): > 512 µg/mL | MIC (Pseudomonas aeruginosa [2]): > 512 µg/mL | MIC (Escherichia coli [3]): 4 µg/mL (≈ 10.9 µM) | MIC (Escherichia coli [4]): > 512 µg/mL | MIC (Pseudomonas aeruginosa [5]): > 512 µg/mL

CO/N=C(\C(=O)N[C@@H]1C(=O)N2C(C(=O)O)=C(COC(N)=O)CS[C@H]12)c1ccco1 [CEFUROXIME]
Ratio (Pseudomonas aeruginosa [6]): 300 | MIC (Escherichia coli [1]): 32 µg/mL | MIC (Pseudomonas aeruginosa [2]): > 512 µg/mL | MIC (Escherichia coli [3]): 2 µg/mL (≈ 4.71 µM) | MIC (Escherichia coli [4]): 128 µg/mL | MIC (Pseudomonas aeruginosa [5]): > 512 µg/mL

B1: Beta-lactamase (Pseudomonas aeruginosa), D2SSQ3 (protein)
chain: MKLLLYPLLLFLVIPAFAQADFEHAISDLEAHNQAKIGVALVSENGNLIQGYRANERFAMCSTFKLPLAALVLSRIDAGEENPERKLHYDSAFLEEYAPAAKRYVATGYMTVTEAIQSALQLSDNAAANLLLKEVGGPPLLTKYFRSLGDKVSRFDRIEPTLNTNTPGDERDTTTPMSMAQTVSKLIFGDTLTYKSKGQLRRLLIGNQTGDKTIRAGLPDSWVTGDKTGSCANGGRNDVAFFITTAGKKYVLSVYTNAPELQGEERALLIASVAKLARQYVVH
kcat/Km [7]: 290000 M⁻¹ s⁻¹ | kcat/Km [8]: 300000 M⁻¹ s⁻¹ | kcat/Km [9]: 10000 M⁻¹ s⁻¹ | kcat/Km [10]: 280000 M⁻¹ s⁻¹ | kcat/Km [11]: 2.2e+06 M⁻¹ s⁻¹ | kcat/Km [12]: 150000 M⁻¹ s⁻¹ | kcat/Km [13]: 73000 M⁻¹ s⁻¹ | kcat/Km [14]: 300000 M⁻¹ s⁻¹ | kcat/Km [15]: 47000 M⁻¹ s⁻¹ | Km [16]: 0.45 µM | kcat [16]: 0.13 s⁻¹ | kcat [17]: < 0.01 s⁻¹ | Km [18]: 4 µM | kcat [18]: 1.2 s⁻¹ | Km [19]: 0.3 µM | kcat [19]: 0.003 s⁻¹ | Km [20]: 0.36 µM | kcat [20]: 0.1 s⁻¹ | Km [21]: 2 µM | kcat [21]: 4.3 s⁻¹ | Km [22]: 8 µM | kcat [22]: 1.2 s⁻¹ | kcat [23]: < 0.01 s⁻¹ | Km [24]: 12 µM | kcat [24]: 0.88 s⁻¹ | Km [25]: 0.3 µM | kcat [25]: 1.1 s⁻¹ | Km [26]: 0.64 µM | kcat [26]: 0.03 s⁻¹

B2: Beta-lactamase bla(BEL1) (Pseudomonas aeruginosa), Q3SAW3 (protein)
chain: B1 chain with F155L
kcat/Km [27]: 250000 M⁻¹ s⁻¹ | kcat/Km [28]: 150000 M⁻¹ s⁻¹ | kcat/Km [29]: 7000 M⁻¹ s⁻¹ | kcat/Km [30]: 100000 M⁻¹ s⁻¹ | kcat/Km [31]: 540000 M⁻¹ s⁻¹ | kcat/Km [32]: 230000 M⁻¹ s⁻¹ | kcat/Km [33]: 250000 M⁻¹ s⁻¹ | kcat/Km [34]: 130000 M⁻¹ s⁻¹ | Km [35]: 250 µM | kcat [35]: 30 s⁻¹ | kcat [36]: < 0.01 s⁻¹ | Km [37]: 20 µM | kcat [37]: 3 s⁻¹ | Km [38]: 150 µM | kcat [38]: 1 s⁻¹ | Km [39]: 100 µM | kcat [39]: 10 s⁻¹ | Km [40]: 280 µM | kcat [40]: 150 s⁻¹ | Km [41]: 130 µM | kcat [41]: 30 s⁻¹ | kcat [42]: < 0.01 s⁻¹ | Km [43]: 40 µM | kcat [43]: 10 s⁻¹ | Km [44]: 15 µM | kcat [44]: 2 s⁻¹ | Km [45]: > 700 µM | kcat [45]: > 1.5 s⁻¹
